Measurements published in patent US20260209368A1 (PROMETHEUS BIOSCIENCES, published 2026).

Key:
[1] = target: T1, recombinant cynomolgus monkey TL1A protein (cynomolgus monkey, UniProt G7PRK8 72-251); assay: ELISA on recombinant TL1A protein, antibody titrated, A450 nm read
T1 construct: also called cynomolgus TL1A; Cyno TL1A
T1 sequence: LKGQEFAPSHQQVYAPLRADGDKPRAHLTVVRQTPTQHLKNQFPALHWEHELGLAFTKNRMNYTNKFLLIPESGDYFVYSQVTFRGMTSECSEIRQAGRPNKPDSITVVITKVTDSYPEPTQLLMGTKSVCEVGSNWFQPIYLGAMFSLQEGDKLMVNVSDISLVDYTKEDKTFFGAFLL
Procedure: ELISA for each protein was performed at least three times. The data from a representative experiment are shown and are mean±SD. Abbreviations: A=absorbance, Ab=antibody, Cyno=cynomolgus, nm-nanometer, nM-nanomolar. […] Samples were assayed in triplicate, on two separate occasions. Data presented are the mean TL1A concentrations of three animals per group+SD. Samples collected from animals administered isotype control antibody are shown in circles, samples collected from animals administered anti-TL1A are shown in the triangles and square.

[2] = target: T2, recombinant human TL1A protein (human, UniProt O95150 72-251); assay: cell-based or functional assay
T2 sequence (looked up): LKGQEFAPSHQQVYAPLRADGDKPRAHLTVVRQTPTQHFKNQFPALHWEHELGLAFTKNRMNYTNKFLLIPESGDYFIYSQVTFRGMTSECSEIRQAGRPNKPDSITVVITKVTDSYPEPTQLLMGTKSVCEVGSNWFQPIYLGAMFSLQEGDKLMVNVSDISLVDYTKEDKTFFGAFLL

[3] = target: T1, recombinant cynomolgus monkey TL1A …; assay: cell-based or functional assay
TL1A in human blood = target: T3, TL1A in human blood (human, UniProt O95150 72-251, limits assumed); assay: cell-based or functional assay
T3 sequence (looked up): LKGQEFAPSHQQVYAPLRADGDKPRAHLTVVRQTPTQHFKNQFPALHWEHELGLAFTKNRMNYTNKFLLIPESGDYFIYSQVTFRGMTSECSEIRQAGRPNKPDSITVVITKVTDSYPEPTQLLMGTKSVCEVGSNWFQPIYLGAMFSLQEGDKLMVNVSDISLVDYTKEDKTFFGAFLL

Binder | EC50 (read off the curve) [1] | IC50 of inhibition of TL1A-induced caspase activation in TF-1 cells [2] | IC50 of inhibition of TL1A-induced caspase activation in TF-1 cells [3] | IC50 of inhibition of the IFN-γ response in monkey whole blood stimulated with immune complex, IL-12 and IL-18 [3] | % Inhibition at 1 nM Ig; inhibition of interferon gamma release in human blood (TL1A in human blood) | % Inhibition at 10 nM Ig; inhibition of interferon gamma release in human blood (TL1A in human blood)
anti-TL1A antibody A219 (antibody, V domains shown, Humanized monoclonal IgG1 with a kappa light chain, designed to abolish effector functions) VH: QVQLVQSGAEVKKPGASVKVSCKASGFDIQDTYMHWVKQRPGQGLEWMGRIDPASGHTKYDPKFQVRVTITRDTSTSTVYLELSSLRSEDTAVYYCARSGGLPDVWGQGTTVTVSS VL: EIVLTQSPGTLSLSPGERATLSCRASSSVSYMYWYQQKPGQAPRPLIYATSNLASGIPDRFSGSGSGTDFTLTISRLEPEDFAVYYCQQWEGNPRTFGGGTKLEIK | ~400 pM | 270 pM | 590 pM | 1540 pM |  | 
A147 (antibody, V domains shown) VH: QVQLVQSGAEVKKPGASVKVSCKASGFDIQDTYMHWVKQRPGQGLEWMGRIEPASGHIKYDPKFQGRVTMTRDTSTSTVYMELSSLRSEDTAVYYCARSGGLPDWWGQGTTVTVSS VL: EIVLTQSPGTLSLSPGERATLSCRASSSVSYMYWYQQKPGQAPRPLIYATSNLASGIPDRFSGSGSGTDFTLTISRLEPEDFAVYYCQQWEGNPRTFGGGTKLEIK |  |  |  |  | 51.3% | 72.4%
A220 (antibody, V domains shown) VH: QVQLVQSGAEVKKPGASVKVSCKASGFDIQDTYMHWVKQRPGQGLEWMGRIDPASGHTKYDPKFQVRVTMTRDTSTSTAYLELSSLRSEDTAVYYCARSGGLPDVWGQGTTVTVSS VL: EIVLTQSPGTLSLSPGERATLSCRASSSVSYMYWYQQKPGQAPRPWIYATSNLASGIPDRFSGSGSGTDFTLTISRLEPEDFAVYYCQQWEGNPRTFGGGTKLEIK |  |  |  |  | 36.9% | 63.2%
A212 (antibody, V domains shown) VH: QVQLVQSGAEVKKPGASVKVSCKASGFDIQDTYMHWVRQRPGQGLEWIGRIDPASGHTKYDPKFQVRATITTDTSTSTAYLELSSLRSEDTAVYYCARSGGLPDVWGQGTTVTVSS VL: EIVLTQSPGTLSLSPGERATLSCRASSSVSYMYWYQQKPGQAPRPLIYATSNLASGIPDRFSGSGSGTDFTLTISRLEPEDFAVYYCQQWEGNPRTFGGGTKLEIK |  |  |  |  | 46.8% | 71.2%
A217 (antibody, V domains shown) VH: QVQLVQSGAEVKKPGASVKVSCKASGFDIQDTYMHWVKQRPGQGLEWMGRIDPASGHTKYDPKFQVRVTITRDTSTSTVYMELSSLRSEDTAVYYCARSGGLPDVWGQGTTVTVSS VL: EIVLTQSPGTLSLSPGERATLSCRASSSVSYMYWYQQKPGQAPRPLIYATSNLASGIPDRFSGSGSGTDFTLTISRLEPEDFAVYYCQQWEGNPRTFGGGTKLEIK |  |  |  |  | 46% | 72.2%
A219 (antibody, V domains shown) VH: QVQLVQSGAEVKKPGASVKVSCKASGFDIQDTYMHWVKQRPGQGLEWMGRIDPASGHTKYDPKFQVRVTITRDTSTSTVYLELSSLRSEDTAVYYCARSGGLPDVWGQGTTVTVSS VL: EIVLTQSPGTLSLSPGERATLSCRASSSVSYMYWYQQKPGQAPRPLIYATSNLASGIPDRFSGSGSGTDFTLTISRLEPEDFAVYYCQQWEGNPRTFGGGTKLEIK |  |  |  |  | 59.8% | 75.2%
A213 (antibody, V domains shown) VH: QVQLVQSGAEVKKPGASVKVSCKASGFDIQDTYMHWVRQRPGQGLEWMGRIDPASGHTKYDPKFQVRVTITTDTSTSTVYMELSSLRSEDTAVYYCARSGGLPDVWGQGTTVTVSS VL: EIVLTQSPGTLSLSPGERATLSCRASSSVSYMYWYQQKPGQAPRPLIYATSNLASGIPDRFSGSGSGTDFTLTISRLEPEDFAVYYCQQWEGNPRTFGGGTKLEIK |  |  |  |  | 48.6% | 69.8%
